Measurements: PMC3137230 (ACS Chemical Biology, 2011)

Molecular target: the molecule itself
Assay: crystal structure

B1: MmOmeRS, C-terminal catalytic domain (residues 185-454) of the evolved Methanosarcina mazei pyrrolysyl-tRNA synthetase (enzyme, UniProt Q8PWY1 185-454, looked up)
chain: ASAPALTKSQTDRLEVLLNPKDEISLNSGKPFRELESELLSRRKKDLQQIYAEERENYLGKLEREITRFFVDRGFLEIKSPILIPLEYIERMGIDNDTELSKQIFRVDKNFCLRPMLTPNLYNYLRKLDRALPDPIKIFEIGPCYRKESDGKEHLEEFTMLVFWQMGSGCTRENLESIITDFLNHLGIDFKIVGDSCMVFGDTLDVMHGDLELSSALVGPIPLDREWGIDKPWIGAGFGLERLLKVKHDFKNIKRAARSESYYNGISTNL
B1: binds.
